Results from article PMC9942304, “Identification of RimR2 as a positive pathway-specific regulator of rimocidin biosynthesis in Streptomyces rimosus M527”.

Key:
RimR2 [1] = molecular target: T1, RimR2 (Streptomyces rimosus M527, UniProt A0ABY3YSD1 1-918); experiment: EMSA; competed by 100-fold unlabeled probe; LightShift Chemiluminescent EMSA Kit (Thermo); 0.04 pmol/ul biotin probe, 10 ug RimR2; buffer, salt, pH and temperature not stated; conditions: protein: recombinant; tags: His6 (pET32a, EcoRV/BamHI); blunt
T1 sequence: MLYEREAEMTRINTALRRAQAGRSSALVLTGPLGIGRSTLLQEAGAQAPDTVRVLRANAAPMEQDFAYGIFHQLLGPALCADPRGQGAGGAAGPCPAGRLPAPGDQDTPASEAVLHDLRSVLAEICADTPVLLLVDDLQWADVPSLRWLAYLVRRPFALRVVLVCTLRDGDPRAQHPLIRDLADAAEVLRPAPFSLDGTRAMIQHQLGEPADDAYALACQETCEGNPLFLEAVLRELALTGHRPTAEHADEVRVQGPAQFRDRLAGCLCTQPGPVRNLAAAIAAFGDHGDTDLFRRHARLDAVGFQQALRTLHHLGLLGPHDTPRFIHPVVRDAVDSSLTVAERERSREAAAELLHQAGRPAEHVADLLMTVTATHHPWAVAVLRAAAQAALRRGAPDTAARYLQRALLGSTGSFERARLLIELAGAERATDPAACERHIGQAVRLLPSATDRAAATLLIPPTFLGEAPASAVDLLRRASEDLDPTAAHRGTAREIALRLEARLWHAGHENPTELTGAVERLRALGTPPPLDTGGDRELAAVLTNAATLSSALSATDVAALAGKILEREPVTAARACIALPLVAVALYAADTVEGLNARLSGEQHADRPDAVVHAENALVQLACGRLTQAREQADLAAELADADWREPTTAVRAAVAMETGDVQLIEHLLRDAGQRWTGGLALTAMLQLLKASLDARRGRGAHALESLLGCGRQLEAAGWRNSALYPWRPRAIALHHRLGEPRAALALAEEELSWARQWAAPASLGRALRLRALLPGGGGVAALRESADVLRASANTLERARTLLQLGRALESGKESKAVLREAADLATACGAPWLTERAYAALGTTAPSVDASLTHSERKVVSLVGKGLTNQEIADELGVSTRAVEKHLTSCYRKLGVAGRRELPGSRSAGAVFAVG

RimR2 [2] = molecular target: T1, RimR2; experiment: EMSA; LightShift Chemiluminescent EMSA Kit (Thermo); 0.04 pmol/ul biotin probe, 10 ug RimR2; buffer, salt, pH and temperature not stated; conditions: protein: recombinant; tags: His6 (pET32a, EcoRV/BamHI); blunt

B1: rimA promoter probe (dsDNA)
DNA 1: ATCACCGTGCACGAGGGCTGACGCCCGCCCGGGCAGGAGCTCGTGTCCGA
DNA 2: TCGGACACGAGCTCCTGCCCGGGCGGGCGTCAGCCCTCGTGCACGGTGAT
RimR2 [1]
  binding result: binds

B2: rimR2 promoter probe (dsDNA)
DNA 1: TACCTACAAGAAATTGCGTATCACCTCACGCAAGGAACTCCGCGCGCGGA
DNA 2: TCCGCGCGCGGAGTTCCTTGCGTGAGGTGATACGCAATTTCTTGTAGGTA
RimR2 [2]
  binding result: binds

B3: rimC promoter probe (dsDNA)
DNA 1: CCCCATCCTGATCACAAAAGACTAAGGGAAATGTTAAAGGTACGGTGTGC
DNA 2: GCACACCGTACCTTTAACATTTCCCTTAGTCTTTTGTGATCAGGATGGGG
RimR2 [1]
  binding result: binds
